This note sets out measurements from patent WO2013167756A1.

For the assay, the target named is CD22 on CD22-positive Raji cells and CD22 positive Ramos cells (human) (UniProt P20273). As to the kind of experiment: flow cytometry on CD22-positive Raji cells, PE anti-human IgG Fc secondary, four-parameter fit. On the technique in general: In flow cytometry, cells or beads pass a laser one at a time.

For “AGC1100, anti-CD22 monoclonal antibody hLL2, also called epratuzumab”, the EC50 (in general, the midpoint of the concentration-response curve) was 9 nM.
